Experimental data as given in patent US12534540B2, “CYP1A1-targeted monoclonal antibody with reactivity across vertebrate taxa” (Clemson University Research Foundation, priority 2023, dated 2026).
Read-outs that look alike come from different tables or passages of the source.

What was measured:
[1] = molecular target: core vertebrate CYP1A sequence IRDITSLI (SEQ ID NO:35) (Homo sapiens, UniProt P04798); test: ELISA against conserved core CYP1A peptide; type: binding; details: FIG. 1 panel B
Procedure: Using additional screening approaches, ELISAs were carried out to determine if either of the three mAbs would recognize the core vertebrate CYP1A sequence [sequence] (SEQ ID NO:35)). […] Based on the general rule of thumb that confluent supernatants contain approximately 30 μg/mL of specific antibody, a total of 60 μg of the peptide in 100 μL PBS as the highest concentration was serially diluted and 50 μL of each dilution were mixed with 50 μL confluent supernatants to yield 100 μL of total mixture for screening ELISA plates coated with the original zebrafish peptide. This mixture of hybridoma supernatant and peptide dilutions was allowed to incubate overnight at 4° C. The next day these mixtures of 100 μL total sample were mixed by gentle agitation and added to zebrafish CYP1A1 peptide-pre-coated ELISA plates and incubated for 2 h at RT. After extensive washings with PBST, the plates were incubated with goat anti-mouse IgG conjugated with alkaline phosphatase for 2 h, washed extensively, and developed and quantified at 405 nm and the data recorded.

[2] = system: induced CYP1A1 across vertebrate taxa; type: binding
Procedure: Screening mAbs against cell line lysates: […] This medium also supports the growth of frog XLK-WG cells (ATCC, Manassas, VA, USA). Other cells and tissues used for testing and screening are outlined in Table 2. Arochlor 1254-induced and non-induced rat liver S9 fractions were thawed immediately upon receipt from the supplier and prepared for SDS-PAGE-immunoblotting by boiling for 7 min in reducing sample buffer (Thermo Fisher J61337.AD) containing 50 μM PMSF. Commercially sourced HEK cell lysates over-expressing recombinant human CYP1A1 (Origene, Rockville, MD, USA) were prepared similarly. […]-1, and HEPA1C1C7 cells were grown to near confluence in 6-well plates ([…], Corning). Plates seeded with ZFL cells and PLHC-1 cells were sealed with parafilm and kept in sealed containers to avoid external CO2. Cells were treated for 48 h with 10 μM PCB-126 (CAS 57465-28-8, Ultra Scientific) dissolved in DMSO or 0.01% DMSO as a carrier control. XLK-WG cells were grown to near confluence in sealed T-75 flasks, then treated for 12 h with 50 nM of the AHR ligand 6-Formylindolo [3,2-b] carbazole (FICZ) (CAS 172922-91-7, Tocris Biosciences, Bristol, UK) in DMSO or 0.01% DMSO, and again for an additional 12 h with the same. […] Overlying supernatants were removed and transferred to clean tubes and the protein content quantified. […]

[3] = molecular target: T1, CYP1A (Mus musculus, UniProt P00184)
T1 sequence (P00184 1-524): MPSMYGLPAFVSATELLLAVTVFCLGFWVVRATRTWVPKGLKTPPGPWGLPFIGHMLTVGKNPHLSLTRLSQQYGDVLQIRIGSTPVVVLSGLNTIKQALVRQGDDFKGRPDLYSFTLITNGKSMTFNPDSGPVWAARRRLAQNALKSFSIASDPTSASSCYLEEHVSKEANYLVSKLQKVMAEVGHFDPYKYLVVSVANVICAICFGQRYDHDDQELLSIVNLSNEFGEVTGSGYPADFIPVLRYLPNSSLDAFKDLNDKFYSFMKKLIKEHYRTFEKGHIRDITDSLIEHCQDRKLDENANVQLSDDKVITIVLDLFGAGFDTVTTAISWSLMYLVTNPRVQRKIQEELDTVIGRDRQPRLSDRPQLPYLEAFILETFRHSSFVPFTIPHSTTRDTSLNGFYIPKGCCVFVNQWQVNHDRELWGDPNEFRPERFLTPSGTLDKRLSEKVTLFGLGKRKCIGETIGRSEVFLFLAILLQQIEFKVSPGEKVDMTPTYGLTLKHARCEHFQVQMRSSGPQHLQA
Procedure: (§1) Grossly dissected archived tissues (fixed and stored at 4° C. in 70% ethanol) were processed and embedded in ParaPlast Extra. Newly embedded tissues were then sectioned and affixed to charged slides for immunohistochemistry. Mouse liver tissues used for this study were from previous studies wherein mice were exposed to 1 mg/kg PCB-126 prior to tissue fixation. Archived rainbow trout livers (and microsomes stored at −80° C. from beta-naphthoflavone ([…])-treated animals from a previous study (Rice et al. 1998 Mar. environ. Res. 46:87-91) were used for immunohistochemistry and immunoblotting. Archived liver tissue from Gulf killifish collected from sites affected by the Deepwater Horizon spill (DHOS) were analyzed for CYP1A alongside livers from a lab-held colony of CYP1A-recalcitrant Gulf killifish, which is used as a molecular control (naturally acquired CYP1A knockdown) (Oziolor et al. 2016 Aquat. Toxicol. 175:222-231). Finally, previously analyzed embryonic chicken livers exposed to airborne volatiles from DHOS oil were included for additional species comparison.
(§2) Zebrafish (strain AB) exposed to PCB-126 (Ulra Scientific) were also used for this study. Zebrafish were housed at the former Clemson Institute of Environmental Toxicology, Pendleton SC and maintained under Clemson University IACUC approved methods. Two juvenile male and two juvenile female zebrafish (40 dpf) were exposed for 48 h to either 10 μM PCB-126 or 0.10% DMSO in 1 L glass bottles containing maintenance water from the recirculating system and supplied with gentle aeration. Following exposure, the 4 fish per treatment were euthanized on ice with buffered Tricaine®, their abdominal cavities opened, and placed in 10% aqueous buffered zinc formalin (Z-Fix, Anatech, Ltd., Battle Creek, MI, USA) for 2 days, and the fixative replaced with 70% ethanol and stored at 4° C. Prior to processing, zebrafish were decalcified in 0.35 M EDTA, pH 7.8 at room temperature (RT) for 6 days, then processed for microtomy as above. Fish and chicken tissue IHC was performed using a horse-anti-mouse IgG VectaLabs ABC-Elite kit (PK-6102), while mouse tissue IHC was performed using the mouse-on-mouse (M.O.M.) anti-mouse IgG VectaLabs ABC-Ultra kit (BMK-2202)
(§3) Whole zebrafish tissues were sectioned at 7-9 μm and mouse, trout, killifish, and chicken tissues were sectioned at 4-5 μm on a Microm 325 rotary microtome. […] Additional screening assays included isotype controls.

[4] = system: CYP1A
Procedure: as §1, §2, §3

[5] = system: CYP1A; test: Tissue immunohistochemistry, Gulf killifish liver; details: crude oil-exposed adult gulf killifish vs genetically resistant population; FIG. 3 panels E and F
Procedure: as §1
(§4) Zebrafish (strain AB) exposed to PCB-126 (Ulra Scientific) were also used for this study. Zebrafish were housed at the former Clemson Institute of Environmental Toxicology, Pendleton SC and maintained under Clemson University IACUC approved methods. […]

[6] = system: CYP1A; test: Tissue immunohistochemistry, rainbow trout liver; details: rainbow trout treated with 3-NF; FIG. 3 panels G and H
Procedure: as §1, §4

[7] = system: zebrafish CYP1A peptide used for immunizations
Chain of zebrafish CYP1A peptide used for immunizations (as listed by the source): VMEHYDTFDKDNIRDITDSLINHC
Excerpt: Primary hybridoma supernatants were then screened by ELISA against unconjugated peptide for a minimal signal of three-fold optical density readings above wells probed with an irrelevant antibody (mAb 3F9 against major vault protein), then cloned by limiting dilution for further testing.

B1: mAb CRC4: zebrafish CYP1A-targeted mouse monoclonal antibody; VH SEQ ID NO:17, VL SEQ ID NO:20, CDRs SEQ ID NOs:28-33 (antibody, V domains shown)
VH: QVTLKESGPGILQPSQTLSLTCSFSGFSLSTSGMGVNWIRKPSGKGLEWLAHIFWDDDKRYNPSLKSRLTISKDTSRNQVFLMITSVDTADTATYYCASLAMDYWGQGTSVTVSS
VL: DIVMTQGASSVTVTPGESVSISCRSSKSLLHSNGRTFLYWFLQRPGQSPQLLIYRMSNLASGVPDRVSGSGSGTAFTLRISRVEAEDVGVYYCMQHLEYPFTFGGGTRLELK
[1]
  recognition of core vertebrate CYP1A peptide by ELISA: recognized this peptide sequence
[2]
  recognition of treatment-induced CYP1A protein by immunoblotting: recognized by mAb CRC4 across all vertebrate taxa examined
[3]
  CYP1A detection in liver by IHC: easily detected in PCB-126-exposed mouse livers but not unexposed controls
[4]
  CYP1A detection in liver by IHC: easily detected
  CYP1A staining intensity in liver by IHC: most intense staining
  staining after antigen retrieval: more favorable staining
  staining intensity of chicken tissues compared with mAb C10-7: same intensity as seen using mAb C10-7
[5]
  CYP1A detection in liver by IHC: easily detected in adult gulf killifish but not in individuals from a genetically resistant population
[6]
  CYP1A staining intensity in liver by IHC: most intense staining
[7]
  ELISA reactivity against zebrafish CYP1A peptide (selection criteria): meeting selection criteria
